According to patent publication US20250026827A1 (Alector, published 2025):
Read-outs that look alike come from different tables or passages of the source.

T1: mouse SIRPβ1 on CHO cells (mouse)
T1 construct: Whole entry
T1 chain: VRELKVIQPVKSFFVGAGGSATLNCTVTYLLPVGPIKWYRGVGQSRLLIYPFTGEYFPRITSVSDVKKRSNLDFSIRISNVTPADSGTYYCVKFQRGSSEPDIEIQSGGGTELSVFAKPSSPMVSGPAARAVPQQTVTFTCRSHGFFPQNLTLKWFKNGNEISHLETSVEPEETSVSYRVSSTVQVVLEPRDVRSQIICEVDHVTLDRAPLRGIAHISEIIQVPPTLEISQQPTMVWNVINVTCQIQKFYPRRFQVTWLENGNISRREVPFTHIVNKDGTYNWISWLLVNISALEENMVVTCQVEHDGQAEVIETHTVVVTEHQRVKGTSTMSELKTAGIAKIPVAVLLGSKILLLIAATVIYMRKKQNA

T2: mouse SIRPα on cells (mouse, UniProt P97797 32-513)
T2 construct: whole, on cells
T2 sequence (looked up): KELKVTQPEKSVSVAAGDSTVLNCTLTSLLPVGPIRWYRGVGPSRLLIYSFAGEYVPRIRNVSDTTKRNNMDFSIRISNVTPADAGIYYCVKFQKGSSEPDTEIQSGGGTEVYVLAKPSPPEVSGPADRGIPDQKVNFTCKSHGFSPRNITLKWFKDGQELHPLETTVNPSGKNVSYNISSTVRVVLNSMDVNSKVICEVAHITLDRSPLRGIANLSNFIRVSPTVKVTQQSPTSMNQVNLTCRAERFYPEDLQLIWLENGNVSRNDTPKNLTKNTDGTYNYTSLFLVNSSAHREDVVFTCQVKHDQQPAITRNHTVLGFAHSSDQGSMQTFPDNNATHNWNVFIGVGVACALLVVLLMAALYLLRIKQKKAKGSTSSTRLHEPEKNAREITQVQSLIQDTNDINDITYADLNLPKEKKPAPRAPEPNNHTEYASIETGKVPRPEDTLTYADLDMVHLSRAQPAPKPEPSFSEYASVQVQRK

T3: mouse SIRPα D1-Fc (mouse, UniProt P97797 32-150, limits assumed)
T3 construct: domain: D1
T3 sequence (looked up): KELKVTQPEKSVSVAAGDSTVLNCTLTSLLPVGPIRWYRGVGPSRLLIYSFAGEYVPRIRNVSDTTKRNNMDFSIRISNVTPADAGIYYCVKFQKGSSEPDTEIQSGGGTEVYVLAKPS


How the values were obtained:
[1] = biological target: T4, human SIRPα on cells (human, UniProt P78324 31-504); assay: flow cytometry on BWZ cells overexpressing human SIRPα, fluorescent secondary antibody, MFI
T4 construct: Whole entry
Procedure: (§1) To determine antigen specificity of anti-SIRPβ1 antibodies of the present disclosure, cell-based affinity measurements were performed to ascertain the apparent affinities of affinity-matured anti-SIRPβ 1 antibodies to cell surface-expressed antigen. BW5147.G.1.4 cells, an immortalized mouse T-cell line, were engineered to overexpress human SIRPβ1 (BWZ-huSIRPβ1) or human SIRPα (BWZ-huSIRPα). Jurkat cells, an immortalized human T cell line, endogenously express SIRPγ.
(§2) In these experiments, two antibodies previously described were used as positive controls: antibody 18D5 (an anti-SIRPβ antibody that cross-reacts with SIRPα and SIRPβ) and antibody KWAR23 (an anti-SIRPβ antibody that cross-reacts with SIRPα, SIRPβ, and SIRPγ). These antibodies were recombinantly produced on a human IgG4 backbone. […] Serial dilutions of each of the anti-SIRPβ1 monoclonal antibodies and control antibodies were added to 10⁵ cells and allowed to achieve binding equilibrium at 4° C. After addition of fluorescently-labeled secondary antibody and brief washing steps, MFI values as a function of titrated antibody concentration were recorded via FACS analysis.
(§3) Receptor bound antibodies were detected by staining cells with anti-human IgG PE secondary antibody (Southern Biotech). Curves were fit using nonlinear regression analysis with Graphpad Prism 6 software.

[2] = biological target: T5, human SIRPβ1 isoform 1 on cells (human, UniProt O00241 30-398); assay: flow cytometry titration, BWZ-huSIRPβ1 cells
T5 construct: On CHO cells (low level), on BWZ/BW5147.G.1.4 cells (reporter cells co-express human DAP12) or on primary human myeloid cells; also called huSIRPβ1; BWZ-huSIRPβ1
Procedure: as §2
In Table 14 below, EC50 values assign relative affinity by adding increasing concentrations of antibody variants to cells overexpressing SIRPβ 1. Receptor bound antibodies were detected by staining cells with anti-human IgG PE secondary antibody (Southern Biotech). Curves were fit using nonlinear regression analysis with Graphpad Prism 6 software.

[3] = biological target: T4, human SIRPα on cells; assay: flow cytometry
[4] = biological target: T1, mouse SIRPβ1 on CHO cells; assay: flow cytometry
[5] = biological target: T6, human SIRPβ1-Fc isoform 3 (Q5TFQ8) (human, UniProt Q5TFQ8 30-371, limits assumed); assay: ELISA on plate-coated huSirpB-Fc (Q5TFQ8.1), anti-human kappa-HRP, A450
T6 construct: Whole entry named; made in HEK293 cells; also called human SIRPβ1 isoform 3
Procedure: To ascertain if the selected anti-SIRPβ1 antibodies cross-reacted with other isoforms of human SIRPβ1 or with cynomolgus SIRPβ1, recombinant antigens based on human SIRPβ1 isoform 3 sequence and cynomolgus SIRPβ1 isoform 1 sequence were produced by transient transfection in HEK293 cells. Purified, Fc-tagged recombinant proteins were adsorbed onto 96-well plates at 1 μg/mL overnight at 4° C. Plates were subsequently washed with PBS+0.05% Tween-20 and blocked with 1% BSA+PBS for 2 hours at room temperature. Antibodies diluted in blocking buffer at 1 μg/mL were added to wells, serially diluted, and allowed to bind antigen overnight at 4° C. The following day, the primary antibodies were removed and anti-human kappa light chain antibody conjugated to horseradish peroxidase diluted 1:10,000 in blocking buffer were added to wells and incubated for 1 hour at room temperature. Plates were washed with PBS+0.05% Tween-20 and 100 μL of TMB substrate solution was added to wells to generate a colorimetric signal proportional to amount of anti-SIRPβ1 antibody bound to antigen. Once the reaction reached an appropriate color intensity, 100 μL of Stop solution was added to quench the enzyme.
Eight anti-SIRPβ1 antibodies (four parental antibodies and four corresponding affinity matured antibodies) were selected for analysis.

[6] = biological target: T5, human SIRPβ1 isoform 1 on cells; assay: cell binding titration; target not given
[7] = biological target: T7, Soluble, human SIRPβ1-Fc isoform 1 (O00241) (human, UniProt O00241 30-371, limits assumed); assay: ELISA, antigen coated
T7 construct: Whole entry named; also called human SIRPβ1 isoform 1

[8] = biological target: T5, human SIRPβ1 isoform 1 on cells; assay: flow cytometry
[9] = biological target: T4, human SIRPα on cells; assay: flow cytometry; remark: listed apart in the source
[10] = biological target: T1, mouse SIRPβ1 on CHO cells; assay: flow cytometry
[11] = biological target: T8, human SIRPα domain 1 (D1) Fc fusion (human, UniProt P78324 32-149); assay: Octet, IgG avid
T8 construct: also called human SIRPα D1-Fc; Human SIRPα Fc; not shown: C-terminal human IgG1 Fc

[12] = biological target: T9, SIRPγ on Jurkat cells (human, UniProt Q9P1W8 29-387); assay: flow cytometry on Jurkat cells (endogenous SIRPγ), fold over isotype (MFI)
T9 construct: whole, on cells
Procedure: as §1, §2, §3

[13] = biological target: T2, mouse SIRPα on cells; assay: flow cytometry;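 for FOB: antibodies tested at 1 µg/ml for 30 min on ice against receptor-expressing cells, detected with a PE-labelled secondary antibody, read as mean fluorescence intensity relative to background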
[14] = biological target: T3, mouse SIRPα D1-Fc; assay: Octet
[15] = biological target: T2, mouse SIRPα on cells; assay: flow cytometry; remark: listed apart in the source;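 for FOB: antibodies tested at 1 µg/ml for 30 min on ice against receptor-expressing cells, detected with a PE-labelled secondary antibody, read as mean fluorescence intensity relative to background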
Procedure: (§4) Initial characterization of anti-SIRPβ1 antibodies involved determining their ability to bind cell lines expressing human or mouse SIRPβ1. Cells were harvested, plated at 10⁶/ml in a 96-well plate, washed, and incubated in 100 μl FACS buffer containing 1 μg/ml anti-SIRPβ1 antibody for 0.5 hour on ice. Cells were then washed twice and incubated in 100 μl FACS buffer containing 0.5 μg/ml PE-conjugated secondary antibody for 30 minutes on ice. Cells were washed twice in cold FACS buffer and acquired on a BD FACS Canto. Data analysis and calculation of mean fluorescence intensity (MFI) values or 00 positive cells was performed with FlowJo (TreeStar) software version 10.0.7.
(§5) As a negative control, the anti-SIRPβ1 antibodies were also screened for surface binding to CHO cells overexpressing recombinant mouse SIRPβ31. […] Given the high sequence similarity between receptors of the SIRPβ family, anti-SIRPβ1 antibodies were also screened for cross-reactivity to human and mouse SIRPα.

[16] = biological target: T5, human SIRPβ1 isoform 1 on cells; assay: flow cytometry; remark: listed apart in the source
Procedure: as §4, §5

[17] = biological target: T4, human SIRPα on cells; assay: flow cytometry; remark: listed apart in the source
Procedure: as §4, §5

[18] = biological target: T1, mouse SIRPβ1 on CHO cells; assay: flow cytometry
Procedure: as §4, §5

[19] = biological target: T10, human SIRPβ1 domain 1 (D1) Fc fusion (human, UniProt O00241 30-148); assay: Octet, IgG avid
T10 construct: Made in HEK293/T cells with a heterologous signal peptide; also called Human SIRPβ1 D1-Fc; Human SIRPβ1-Fc; not shown: C-terminal human IgG1 Fc
T10 sequence (O00241 30-148 limits assumed): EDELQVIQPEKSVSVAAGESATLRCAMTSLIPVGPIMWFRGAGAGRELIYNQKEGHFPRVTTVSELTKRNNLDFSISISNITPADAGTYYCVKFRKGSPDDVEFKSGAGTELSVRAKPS

T6 sequence (Q5TFQ8 30-371 limits assumed, one chain of several): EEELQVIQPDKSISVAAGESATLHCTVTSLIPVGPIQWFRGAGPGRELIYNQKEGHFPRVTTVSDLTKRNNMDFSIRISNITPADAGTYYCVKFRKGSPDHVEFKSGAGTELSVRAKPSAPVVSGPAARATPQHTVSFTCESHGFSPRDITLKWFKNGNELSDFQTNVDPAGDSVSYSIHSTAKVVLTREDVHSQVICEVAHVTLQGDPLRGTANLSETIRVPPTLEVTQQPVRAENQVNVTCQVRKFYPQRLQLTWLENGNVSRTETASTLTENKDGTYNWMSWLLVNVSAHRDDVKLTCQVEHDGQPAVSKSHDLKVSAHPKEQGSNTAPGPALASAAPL
T9 sequence (Q9P1W8 29-387): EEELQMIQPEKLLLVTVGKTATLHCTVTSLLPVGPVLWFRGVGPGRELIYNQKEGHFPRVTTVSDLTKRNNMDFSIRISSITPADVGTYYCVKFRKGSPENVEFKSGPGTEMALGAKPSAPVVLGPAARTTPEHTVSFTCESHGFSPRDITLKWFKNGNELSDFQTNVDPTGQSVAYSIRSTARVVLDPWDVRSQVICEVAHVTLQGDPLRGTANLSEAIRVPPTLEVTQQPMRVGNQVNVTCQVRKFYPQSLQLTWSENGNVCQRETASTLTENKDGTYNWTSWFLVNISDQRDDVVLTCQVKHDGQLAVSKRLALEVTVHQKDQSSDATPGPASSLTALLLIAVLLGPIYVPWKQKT
T5 sequence (O00241 30-398): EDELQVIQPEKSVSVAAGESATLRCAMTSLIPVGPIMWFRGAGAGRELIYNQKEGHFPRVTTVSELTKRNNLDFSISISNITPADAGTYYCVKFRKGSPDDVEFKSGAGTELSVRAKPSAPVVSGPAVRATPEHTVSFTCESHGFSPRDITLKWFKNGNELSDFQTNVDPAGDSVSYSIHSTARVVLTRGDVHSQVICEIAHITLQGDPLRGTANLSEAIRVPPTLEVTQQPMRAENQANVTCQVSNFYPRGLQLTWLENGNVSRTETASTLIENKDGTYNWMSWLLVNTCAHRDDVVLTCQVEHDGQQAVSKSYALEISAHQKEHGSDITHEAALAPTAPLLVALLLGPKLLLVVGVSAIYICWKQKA
T7 sequence (O00241 30-371 limits assumed, one chain of several): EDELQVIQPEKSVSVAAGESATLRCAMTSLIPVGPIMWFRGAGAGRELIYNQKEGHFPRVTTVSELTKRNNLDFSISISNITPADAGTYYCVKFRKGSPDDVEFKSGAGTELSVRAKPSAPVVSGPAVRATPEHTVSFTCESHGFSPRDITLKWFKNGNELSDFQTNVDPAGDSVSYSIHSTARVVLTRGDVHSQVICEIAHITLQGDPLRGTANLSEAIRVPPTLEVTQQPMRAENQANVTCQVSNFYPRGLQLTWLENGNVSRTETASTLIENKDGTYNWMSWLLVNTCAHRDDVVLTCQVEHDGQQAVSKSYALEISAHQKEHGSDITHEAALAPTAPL

EC50 (read off the curve) [1]	EC50 [2]	binding result [3]	binding result [4]	binding result [5]	EC50 [6]	EC50 [7]	FOB [8]	FOB [9]	FOB [10]	binding result [11]	binding result [13]	binding result [14]	FOB [15]	FOB [16]	FOB [17]	FOB [18]	Kd [19]	Binder	binding result [1]	binding result [12]
~0.2 nM	0.477 nM	–	–	–	–	–	–	–	–	–	–	–	–	–	–	–	–	18D5 (antibody, V domains shown) VH: QVQLQQPGAELVRPGSSVKLSCKASGYTFTSYWVHWVKQRPIQGLEWIGNIDPSDSDTHYNQKFKDKASLTVDKSSSTAYMQLSSLTFEDSAVYYCVRGGTGTMAWFAYWGQGTLVTVSA VL: DVVMTQTPLSLPVSLGDQASISCRSSQSLVHSYGNTYLYWYLQKPGQSPKLLIYRVSNRFSGVPDRFSGSGSGTDFTLKISRVEAEDLGVYFCFQGTHVPYTFGSGTKLEIK	–	–
–	–	no binding (tested: 1 ug/ml)	no binding (tested: 1 ug/ml)	no binding (tested: 1 ug/mL)	0.059 nM	0.045 nM	4 fold over background	1 fold over background	1 fold over background	no binding (tested: 100 nM)	–	–	–	–	–	–	–	SB-1-2 (antibody, V domains shown, IgG) VH: QVQLVESGGGVVQPGRSLRLSCAASGFTFGSFGMNWVRQAPGKGLEWVSAITASGGSTFYADSVKGRFTISRDNSKNTLYLQMNSLRAEDTAVYYCAKDFTEVVGWLGMDVWGQGTTVTVSS VL: EIVMTQSPGTLSLSPGERATLSCRASQSVSSSYLAWYQQKPGQAPRLLIYGASSRATGIPDRFSGSGSGTDFTLTISRLEPEDFAVYYCQLLGSSPRTFGGGTKVEIK	–	–
–	–	no binding (tested: 1 ug/ml)	no binding (tested: 1 ug/ml)	no binding (tested: 1 ug/mL)	0.132 nM	0.029 nM	5 fold over background	1 fold over background	1 fold over background	no binding (tested: 100 nM)	–	–	–	–	–	–	–	SB-2-7 (antibody, V domains shown, IgG) VH: EVQLLESGGGLVQPGGSLRLSCAASGFTFARYGMHWVRQAPGKGLEWVSAISGLAGPTYADSVKGRFTISRDNSKNTLYLQMNSLRAEDTAVYYCARDQTAAAAIWGMDVWGQGTTVTVSS VL: EVVLTQSPGTLSLSPGERATLSCRASQSVSSSYLAWYQQKPGQAPRLLIYGASSRATGIPDRFSGSGSGTDFTLTISRLEPEDFAVYYCQQSSSHPFTFGGGTKVEIK	–	–
–	0.203 nM	–	no binding (tested: 1 ug/ml)	–	0.174 nM	–	5 fold over background	1 fold over background	1 fold over background	no binding (tested: 100 nM)	–	–	–	–	–	–	–	SB-2-8 (antibody, V domains shown, IgG) VH: QVQLVESGGGVVQPGRSLRLSCAASGFTFLDYGMHWVRQAPGKGLEWVSAISAFAGSTYADSVKGRFTISRDNSKNTLYLQMNSLRAEDTAVYYCARDQTAAAAIWGMDVWGQGTTVTVSS VL: EVVLTQSPGTLSLSPGERATLSCRASQSVSSSYLAWYQQKPGQAPRLLIYGASSRATGIPDRFSGSGSGTDFTLTISRLEPEDFAVYYCQQSSSHPFTFGGGTKVEIK	no binding (tested: Log nM about 0.8 (about 7 nM))	no binding (tested: Log nM about 1.8 (about 60 nM))
–	0.0284 nM	–	no binding (tested: 1 ug/ml)	–	0.062 nM	–	4 fold over background	0 fold over background	2 fold over background	no binding (tested: 100 nM)	–	–	–	–	–	–	–	SB-1-3 (antibody, V domains shown, IgG) VH: EVQLVESGGGLVKPGGSLRLSCAASGFTFSAYGMNWVRQAPGKGLEWVSAITSSGRSTYYADSVKGRFTISRDNSKNTLYLQMNSLRAEDTAVYYCAKDFTEVVGWLGMDVWGQGTTVTVSS VL: EIVMTQSPGTLSLSPGERATLSCRASQSVSSSYLAWYQQKPGQAPRLLIYGASSRATGIPDRFSGSGSGTDFTLTISRLEPEDFAVYYCQLLGSSPRTFGGGTKVEIK	no binding (tested: Log nM about 0.8 (about 7 nM))	no binding (tested: Log nM about 1.8 (about 60 nM))
–	–	–	no binding (tested: 1 ug/ml)	no binding (tested: 1 ug/mL)	0.441 nM	0.022 nM	2 fold over background	1 fold over background	2 fold over background	–	no binding (tested: 1 ug/ml)	no binding (tested: 100 nM)	1.2 fold over background	4.1 fold over background	2.1 fold over background	1.7 fold over background	2.72 nM	SB-8 (antibody, V domains shown, IgG; also called SB-8 (p)) VH: QVQLQESGPGLVKPSETLSLTCAVSGYSISSGYYWGWIRQPPGKGLEWIGSIYHSGSTYYNPSLKSRVTISVDTSKNQFSLKLSSVTAADTAVYYCARGGAMTPAGMDVWGQGTTVTVSS VL: EIVMTQSPGTLSLSPGERATLSCRASQSVSSSYLAWYQQKPGQAPRLLIYGASNRATGIPDRFSGSGSGTDFTLTISRLEPEDFAVYYCQQVYSSPYTFGGGTKVEIK	–	–
–	0.596 nM	–	no binding (tested: 1 ug/ml)	–	0.737 nM	–	7 fold over background	1 fold over background	1 fold over background	no binding (tested: 100 nM)	–	–	–	–	–	–	–	SB-8-15 (antibody, V domains shown, IgG) VH: QVQLQESGPGLVKPSETLSLTCAVSGYSISAHYYWGWIRQPPGKGLEWIGSIYQSGHTYYNPSLKSRVTISVDTSKNQFSLKLSSVTAADTAVYYCARGGAMTPAGMDVWGQGTTVTVSS VL: EIVMTQSPGTLSLSPGERATLSCRASQSVSSSYLAWYQQKPGQAPRLLIYGASNRATGIPDRFSGSGSGTDFTLTISRLEPEDFAVYYCQQVYSSPYTFGGGTKVEIK	no binding (tested: Log nM about 0.8 (about 7 nM))	no binding (tested: Log nM about 1.8 (about 60 nM))
–	8.7 nM	–	no binding (tested: 1 ug/ml)	–	0.405 nM	–	3 fold over background	1 fold over background	2 fold over background	no binding (tested: 100 nM)	–	–	–	–	–	–	–	SB-40-20 (antibody, V domains shown, IgG) VH: QVQLVQSGAEVKKPGASVKVSCKASGYTFTSFYISWVRQAPGQGLEWMGIINPSSGHTNYAQKLQGRVTMTTDTSTSTAYMELSSLRSEDTAVYYCARDTGEYSYSPHGMDVWGQGTTVTVSS VL: EIVLTQSPATLSLSPGERATLSCRASQSVSSYLAWYQQKPGQAPRLLIYDSSNRATGIPARFSGSGSGTDFTLTISSLEPEDFAVYYCQQRDEHPPWTFGGGTKVEIK	no binding (tested: Log nM about 0.8 (about 7 nM))	no binding (tested: Log nM about 1.8 (about 60 nM))
